Tests used:
[1] = system: LrAgo (Limnothrix rosea IAM M-220); assay: competition
[2] = system: LrAgo (Limnothrix rosea IAM M-220); assay: double-filter binding; conditions: 5'-phosphate

Which Kd ([1]; 5'-hydroxyl) does the source give for “GTTAGACTTTAAGTCAAT [18 nt 5'-OH guide DNA (G-guide)]” here?
Its Kd is 0.0456 nM.

With “GTTAGACTTTAAGTCAAT [18 nt 5'-P guide DNA (G-guide)]” as the sequence, how does the Kd ([1]; 5'-phosphate) read?
Its Kd is 0.0333 nM.

What about the Kd [2] of the same sequence?
Its Kd is 0.0348 nM.

From article PMC6582412
